Residue numbers refer to the chain shown, from its start. Blank lines part the entries; values can stand above or below the binder they belong to.
What was measured:
Experiment in all cases: ELISA on streptavidin-immobilized biotinylated 15mer peptides; area under the signal vs antibody concentration curve
residue mutated to A: T = target: residue mutated to A: T
residue mutated to A: N = target: residue mutated to A: N
residue mutated to A: I = target: residue mutated to A: I

percent of binding to the natural peptide (AUC) (residue mutated to A: T): 4%
B1: Ab7960/293i (antibody, V domains shown)
VH: LVESGGGVVQPGKSLRLSCVASGFSFSTYGMHWVRQAPGKGLEWVAVMSFDGKTKYYADSVKGRFTISRDNPKNTLYLQMNSLRSEDTAVYYCAKGGAAAAVFDSWGPGILLTVSS
VL: MTQSPNSLAVSLGGRATINCKASQSILYRSNNKNYLAWYQHKAGQPPKLLIYWASTRESGVPERFSGSGSRTDFTLTINGLQAEDVAVYYCQQYYNPPWTFGQGTKVEIK

percent of binding to the natural peptide (AUC) (residue mutated to A: T): 34%
B2: Ab7979 (antibody, V domains shown)
VH: B1 VH with S25T, P108Q
VL: B1 VL with A22T, A43P, G60R, E63D, N79S

percent of binding to the natural peptide (AUC) (residue mutated to A: N): 4%
B3: Ab7961/293i (antibody, V domains shown)
VH: B1 VH with S25T, T28S, P108Q
VL: B1 VL with A22T, A43S, E63D, N79S

percent of binding to the natural peptide (AUC) (residue mutated to A: I): 8%
B4: Ab7955 (antibody, V domains shown)
VH: LVESGGGVVRPGRSLRLSCVASGFTFNAYGMHWVRQGPGKGLEWLAVISYEGKTVYYADSVKDRFTISRDNSRNTVSLHLNNLRGEDTAVYYCAKGSASAAVLQHWGQGTLVSVTS
VL: MTQSPGSLAVSLGSRATINCKSSRSLLYRSNNKNYLAWYQQKPGQSPRLLIYWASSRESGVPDRFSGGGSGTSFTLTISSLQAEDVAVYYCQQYFNPPWTFGQGTKVEIK

Reference: US20210061891A1
